The numbers were not newly measured in paper PMC4437577, which cites them from elsewhere.

For the data set, the target named is PR-B (Homo sapiens) (UniProt P06401). In words: analytical ultracentrifugation.

As to PR-B (from UniProt P06401), the Kd is 8.8 µM.
